Measurements as given in patent US11471494B2, “Microorganisms programmed to produce immune modulators and anti-cancer therapeutics in tumor cells” (Synlogic Operating Company, Inc., priority 2017, dated 2022).

Assays:
Conditions in all cases: supernatant
anti-mSIRPα antibody = test: SIRPα/CD47 ELISA binding assay, detection by antibody
[1] = SIRPα/CD47 ELISA binding assay, control coatings
mCD47 = target: T1, mCD47 (Mus musculus, UniProt Q61735); test: SIRPα/CD47 ELISA binding assay of supernatants
T1 sequence (Q61735 19-303): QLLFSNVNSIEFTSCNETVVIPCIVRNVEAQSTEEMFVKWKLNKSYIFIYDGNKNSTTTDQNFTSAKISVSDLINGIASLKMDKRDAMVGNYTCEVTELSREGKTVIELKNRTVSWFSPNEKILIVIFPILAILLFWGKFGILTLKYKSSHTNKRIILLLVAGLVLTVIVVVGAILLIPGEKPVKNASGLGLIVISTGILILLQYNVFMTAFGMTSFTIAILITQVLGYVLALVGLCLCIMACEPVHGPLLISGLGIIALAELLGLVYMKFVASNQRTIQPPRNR

ELISA signal, coating Anti-mSIRPα (anti-mSIRPα antibody): 0.829 | ELISA signal, coating IgG [1]: 0.056 | ELISA signal, coating PBS [1]: 0.059 | ELISA signal, coating mCD47 (mCD47): 1.069
B1: Secreted WT mSIRPα: wild type murine SIRPα secreted by engineered Nissle (SYN2996), in supernatant (protein)
chain: KELKVTQPEKSVSVAAGDSTVLNCTLTSLLPVGPIRWYRGVGPSRLLIYSFAGEYVPRIRNVSDTTKRNNMDFSIRISNVTPADAGIYYCVKFQKGSSEPDTEIQSGGGTEVYVLAKPSPPEVSGPADRGIPDQKVNFTCKSHGFSPRNITLKWFKDGQELHPLETTVNPSGKNVSYNISSTVRVVLNSMDVNSKVICEVAHITLDRSPLRGIANLSNFIRVSPTVKVTQQSPTSMNQVNLTCRAERFYPEDLQLIWLENGNVSRNDTPKNLTKNTDGTYNYTSLFLVNSSAHREDVVFTCQVKHDQQPAITRNHTVLGFAHSSDQGSMQTFPDNNATHNWN
modifications: left off: small tags and cut ends
